T1: DHF119_C6_anchor
T1 construct: hexamer: avi-tag, monomer of designed hexamer 3H22, (GGS)5 linker, C cap of DHF119; also called anchor DHF119_C6
T1 chain: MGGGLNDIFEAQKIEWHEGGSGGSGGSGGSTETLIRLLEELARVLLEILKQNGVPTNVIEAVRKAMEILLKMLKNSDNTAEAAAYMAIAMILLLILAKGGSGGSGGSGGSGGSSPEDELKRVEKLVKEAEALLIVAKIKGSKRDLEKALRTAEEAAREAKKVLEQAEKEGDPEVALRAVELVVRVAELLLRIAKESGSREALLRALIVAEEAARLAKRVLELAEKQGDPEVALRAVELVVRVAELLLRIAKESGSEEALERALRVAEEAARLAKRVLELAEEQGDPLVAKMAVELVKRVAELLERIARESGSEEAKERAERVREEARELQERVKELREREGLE


Biological target: the molecule itself
Assay: negative stain EM; 1 = filaments observed (self-assembly)
Excerpt: The designs were expressed in Escherichia coli under the control of a T7 promoter and purified using immobilized metal affinity chromatography (IMAC). […] IMAC eluates were concentrated, and filament formation was monitored by negative stain electron microscopy (EM); insoluble designs were characterized by EM either directly in the initial insoluble fraction, or after solubilization in guanidine hydrochloride, IMAC, and subsequent removal of denaturant.
Negative Stain Electron Microscopy. Soluble fractions were concentrated and insoluble fractions were resuspended in buffer (25 mM Tris, 75 mM NaCl, pH 8) for EM screening. A drop of 6 μL (1 μl sample instantly diluted with 5 μl of buffer) was applied on negatively glow discharged, carbon-coated 200-mesh copper grids (Ted Pella, Inc.), washed with Milli-Q™ Water and stained using 0.75% uranyl formate as described previously (28). The screening was performed on either a 120 kV Tecnai Spirit™ T12 transmission electron microscope (FEI, Hillsboro, Oreg.) or a 100 kV Morgagni M268 transmission electron microscope (FEI, Hillsboro, Oreg.). Images were recorded on a bottom mount Teitz CMOS™ 4 k camera system. The contrast of the images was enhanced in the Fiji software (29) for clarity.

| Binder | binding result |
| --- | --- |
| DHF76 (designed binder, vector pET28b; forms a homo-polymer) MGLEKEVLRVKLVKICVLLARLKGDDTEEAREAARQAFEVVRLAAELAGIDSSEVLELAIRLIKECVENAQREGYDISLACMLAALAFKRVAEAAKRAGITSSEVLELAIRLIKECVENAQRDGYDISEACRAAAEAFKRVAEAAKRAGITSSETLKRAIEEIRKRVEEAQREGNEISEACRQAAEEFRKKAEELKRLE | binds |
| DHF8 (designed binder, vector pET28b; forms a homo-polymer) MGLELSLVINLVLLANLLHLQAMMKGSSEDLEKALRTAEEAAREAKKVLEQAEKNGDPEVALRAVELVVIVAITLLLIAISSGSEEALERALRVAEEAARLAKRVLELAEKAGDPEVALRAVELVVRVAELLLRIAKESGSEEALERALRVAEEAARLAKRVLELAEKQGDPEVARRAVELVKRVAELLERIARESGSEEAKERAERVREEARELQERVKELREREGLE | binds |
| DHF78 (designed binder, vector pET28b; forms a homo-polymer) MGELVLLVAKLALAVAVQASALGDEEVFRKAAEKALELAKRLVELAKLIGDPELVLEAAKVALEVAELAAKNGDKEVFKKAAESALEVAKRLVEVASKEGDPELVLEAAKVALRVAELAAKNGDKEVFKKAAESALEVAKRLVEVASKEGDPELVEEAAKVAEEVRKLAKKQGDEEVYEKARETAREVKEELKRVREEKGLE | binds |
| DHF17 (designed binder, vector pET28b; forms a homo-polymer) MGHHHHHHSSGSSEKEELRERLVEIVVALAKAKGDDTELAREAAREAFELVREAAERAGIDSSMVLILAIQLILEVVANAAKEGYDISLAALAAAEAFKRVAEAAKRAGITSSMVLILAIRLIKEVVENAQREGYDISLAALAAAEAFKRVAEAAKRAGITSSMTLMRAIEEIRKRVEEAQREGNDISEAARQAAEEFIIKAVVLKARGDV | binds |
| DHF82 (designed binder, vector pET28b; forms a homo-polymer) MGPEEILESAKESLERAREASEAGLELVFRLAAEVALELAKRLVEQAKKEGDPELVLEAAKVALRVAELAAKNGDKEVFKKAAESALEVAKRLVEVASKEGDPELVLEAAKVALRVAELAAKNGDKEVFKKAAESALEVAKRLVEVASKEGDPTLVIMALIVAEEVIKLASKQGDELVMLKAVETAKEVKEEAMRVMLEKGLE | binds |
| DHF16 (designed binder, vector pET28b; forms a homo-polymer) MGQILMKAKLSLVKAAEASLSGDELEFRIAAETALVLAKLLVLQAKKKGDPELVLEAAKVALRVAELAAKNGDKEVFKKAAESALEVAKRLVEVASKEGDPELVLEAAKVALRVAELAAKNGDKEVFKKAAESALEVAKRLVEVASKEGDPELVEEAAKVAEEVRKLAKKQGDEEVYEKARETAREVKEELKRVREEKGLE | binds |
| DHF77 (designed binder, vector pET28b; forms a homo-polymer) MGDSMKLVMLLLKKAVTLAKLNNDDMVALEIERAAKQIVLALAVNKSDEMAKVMLALAKAVLLAAKNNDDEVAREIARAAAEIVEALKENNSDEMAKVMLALAKAVLLAAKNNDDEVAREIARAAAEIVEALRENNSDEMAKKMLELAKRVLDAAKNNDDETAREIARQAAEEVEADRENLE | binds |
| DHF25 (designed binder, vector pCDB24 (SUMO fusion); forms a homo-polymer) ARVVLKRVEKLVKEAETLLLVAIMKGSEEDLEKALRTAEEAAREAKKVLVLAVVVGDPEVALRAVELVVRVAELLLLIAIISGSEEALERALRVAEEAARLAKRVLELAENQGDPEVALRAVELVVRVAELLLMIAKVSGSEEALERALRVAEEAARLAKRVLELAEKQGDPEVARRAVELVKRVAELLERIARESGSEEAKERAERVREEALQLQARVMNLREREG | binds |
| DHF91 (designed binder, vector pET28b; forms a homo-polymer; cryoEM PDB 6E9X) MGDERRELEKVAVKAIMAAMLGNTDEVREQLQRALEIARESGTLLAVVLALEVVARVAIEAARKGNTDAVREALEVALEIARESGTKVAVVLALEVVARVAIEAARRGNVLAVILALEVALEIARESGTEEAALLAVEVVVRVSDEAKKQGNAVAVAVAEQVAKKILE | binds |
| DHF62 (designed binder, vector pET28b; forms a homo-polymer) MGIVLVIESLEAEVRLEKAKVLSVLARVRGDLKELAEALIEEARAVQELARVACEKGNSEEAERASEKAQRVLEEARKVSEEAREQGDDEVLALALIAIALAVLALAEVACCRGNSEEAERASEKAQRVLEEARKVSEEAREQGDDEVLALALIAIALAVLALAEVACCRGNKEEAERAYEDARRVEEEARKVKESAEEQGDSEVKRLAEEAEQLAREARRHVQECRGLE | binds |
| DHF107 (designed binder, vector pET28b; forms a homo-polymer) MGPEEILERAKESLERAREASERGDEMEFRIAAQKALELARQLVLQALAEGDPELVLEAAKVALRVAELAAKNGDKEVFKKAAESALEVAKVLVLVASKEGKPELVLEAAKVALRVAVLAAMNGDKEVFKKAAESALEVAKRLVEVASKEGDPELVLEAAKVAEKVRVLAAVQGDEEVYEKARETAREVKEELKRVMEEKGLE | binds |
| DHF20 (designed binder, vector pCDB24 (SUMO fusion); forms a homo-polymer) MDEMKARLLIERAKEAAERAQEAAERTGDPLVRLLAEMLKRLAQEAAEEVKRDPSSSDVNEALKLIVEAIEAAVRALEAAERTGDPEVRELASELVRLAVEAAEEVQRNPSSSDVNEALKLIVEAIEAAVRALEAAERTGDPRVRELARELVRLAVEAAEEVQRNPSSVEVALALLKIVKAIEEAVESLREAEESGDPMKRLEAALRVREAVERAEEVQRN | binds |
| DHF9 (designed binder, vector pET28b; forms a homo-polymer) MGLILELAKLSLERARLASEAGDRVEFKIAAEKALLLAKVLVLQAKKEGDPELVLEAAKVALRVAELAAKNGDKEVFKKAAESALEVAKRLVEVASKEGDPELVLEAAKVALRVAELAAKNGDKEVFKKAAESALEVAKRLVEVASKEGDPELVEEAAKVAEEVRKLAKKQGDEEVYEKARETAREVKEELKRVREEKGDLE | binds |

Biological target: T1, DHF119_C6_anchor
Assay: TIRF microscopy over 30 minutes
Method: Filament Growth In Vitro. PEG-silane coated glass coverslips were attached to similarly-coated slides with strips of double-stick tape to make flow chambers. All incubations were at 25° C.
The background of the tif movies was subtracted using the software Fiji (29) with a ball radius of 5.0. The contrast was modified to reduce background noise to facilitate fiber identification. CellProfiler™ software (37) was used to identify and track fiber through the different time frames. The output files from CellProfiler™ provided the Major axis length for every fiber through all the movie.

| Binder | binding result |
| --- | --- |
| DHF119-GFP (designed binder, not shown: green fluorescent protein) MGPEDELKRVEKLVKEAEALLIVAKIKGSKRDLEKALRTAEEAAREAVKVLVQALLEGDPEVALRAVELVVRVAELLLRIAKESGSREALLRALIVAEEAAKLAKMVLELAEKQGDPEVALRAVELVVRVAELLLRIAKESGSEEALERALRVAEEAARLAKRVLELAEEQGDPLVAKMAVELVKRVAELLERIARESGSEEAKERAERVREEARELQERVKELREREGLE | binds |

Biological target: the molecule itself
Assay: fluorescence microscopy in living E. coli (self-assembly)

| Binder | binding result |
| --- | --- |
| DHF58-GFP (designed binder, expressed in E. coli; not shown: green fluorescent protein) MELLRVVMLVKEAEELLTLAVIKGSEDDLQKALRTAVEAAREAVKVLLQAVKRGDPEVALRAVELVVRVAELLLRIAKESGSELALKMALLVAEEAARLAKIVLELAEKQGDPEVALRAVELVVRVAELLLRIAKESGSEEALERALRVAEEAARLAKRVLELAEKQGDPEVARRAVELVKRVAELLERIARESGSEEAKERAERVREEARELQERVKELREREGLE | binds |

Biological target: T1, DHF119_C6_anchor
Assay: anchor on streptavidin-coated magnetic beads, microscopy
Excerpt: We sought to replicate this mechanism of control by designing multimeric anchor constructs, with multiple monomeric subunits held close to the relative orientations in the corresponding filaments by a fusion to designed homo-oligomers with the appropriate geometry (FIG. 14; one of the interaction interfaces is eliminated to restrict fiber growth in one direction). […] To study the kinetics of filament formation in vitro in more detail, we attached the anchors to glass slides, added monomers fused to yellow fluorescent protein (YFP) and monitored fiber formation by total internal reflection (TIRF) microscopy. The anchors seeded the rapid growth of multiple micron length fibers over 30 minutes (FIG. 4C; for analysis of growth kinetics of a second fiber see FIG. 15).

| Binder | binding result |
| --- | --- |
| DHF119 (designed binder, vector pET28b; forms a homo-polymer; cryoEM PDB 6E9Z) MGPEDELKRVEKLVKEAEALLIVAKIKGSKRDLEKALRTAEEAAREAVKVLVQALLEGDPEVALRAVELVVRVAELLLRIAKESGSREALLRALIVAEEAAKLAKMVLELAEKQGDPEVALRAVELVVRVAELLLRIAKESGSEEALERALRVAEEAARLAKRVLELAEEQGDPLVAKMAVELVKRVAELLERIARESGSEEAKERAERVREEARELQERVKELREREGLE | binds |

Reference: patent publication US20210324011A1 (University of Washington, published 2021)
